The record followed here is article PMC11764660, “Self-Assembled Peptide Hydrogels PPI45 and PPI47: Novel Drug Candidates for Staphylococcus aureus Infection Treatment” (Gels, 2025).

This data set deals with the molecule itself. Briefly: transmission electron microscopy; peptide solution at its CMC on a copper grid, stained with phosphotungstic acid; monomers to fibres.

Residue numbers refer to the chain shown, from its start. Names may count otherwise.

B1: PPI42 (peptide)
chain: GFGCNGPWSEDDMKCHNHCKSIKGYKGGYCAKGGFLCKCY
notes: mutant of the fungal defensin plectasin (40 amino acids); numbers count on: the mature protein; Forms fibrils and gels by self-assembly; also called self-assembling variant PPI42; defensin-derived peptide PPI42; source: Pichia pastoris X-33 (pPICZαA), fermentation supernatant, purified by cation exchange chromatography
In the case of B1, the binding result is listed as “binds”.

B2: PPI45 (peptide)
chain: B1 chain with S9N
notes: mutant of the fungal defensin plectasin, derived from PPI42 by S9N; numbers count on: the mature protein; S9N against the parent PPI42; also called PPI45:N9; source: Pichia pastoris X-33 (pPICZαA), fermentation supernatant, purified by cation exchange chromatography
Regarding B2, the binding result is “binds”.

B3: PPI47 (peptide)
chain: B1 chain with M13L, K14R
notes: mutant of the fungal defensin plectasin, derived from PPI42 by 13M14K to 13L14R; numbers count on: the mature protein; M13L and K14R against the parent PPI42; also called PPI47:L13 R14; source: Pichia pastoris X-33 (pPICZαA), fermentation supernatant, purified by cation exchange chromatography
Turning to B3, the binding result was “binds”.
